Experimental data: paper PMC5709738 (The EMBO Journal, 2017)

What was measured:
[1] = target: T1, Ame1-Okp1 (K. lactis, full length) (Kluyveromyces lactis, UniProt Q6CUE5 1-292; Q6CJY0 1-383); experiment: native MS; nanoflow spectra and tandem mode with collision-induced dissociation in the gas phase (argon); subassemblies stripped of subunits; conditions: both partners purified
T1 construct: Ame1 of Kluyveromyces lactis; Okp1 of Kluyveromyces lactis; stands as the Ame1-Okp1 part of COMA; also called Okp1-Ame1; source: E. coli BL21 Rosetta 2(DE3)pLysS, co-expressed with Ctf19 and Mcm21 versions
T1 sequence (looked up) 1: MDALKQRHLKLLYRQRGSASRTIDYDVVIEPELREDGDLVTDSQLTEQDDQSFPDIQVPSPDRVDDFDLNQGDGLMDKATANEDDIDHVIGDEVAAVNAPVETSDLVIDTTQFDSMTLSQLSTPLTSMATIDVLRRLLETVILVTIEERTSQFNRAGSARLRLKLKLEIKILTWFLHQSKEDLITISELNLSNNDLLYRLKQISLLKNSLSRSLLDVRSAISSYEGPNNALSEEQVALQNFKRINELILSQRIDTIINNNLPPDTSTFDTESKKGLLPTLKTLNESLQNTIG
T1 sequence (looked up) 2: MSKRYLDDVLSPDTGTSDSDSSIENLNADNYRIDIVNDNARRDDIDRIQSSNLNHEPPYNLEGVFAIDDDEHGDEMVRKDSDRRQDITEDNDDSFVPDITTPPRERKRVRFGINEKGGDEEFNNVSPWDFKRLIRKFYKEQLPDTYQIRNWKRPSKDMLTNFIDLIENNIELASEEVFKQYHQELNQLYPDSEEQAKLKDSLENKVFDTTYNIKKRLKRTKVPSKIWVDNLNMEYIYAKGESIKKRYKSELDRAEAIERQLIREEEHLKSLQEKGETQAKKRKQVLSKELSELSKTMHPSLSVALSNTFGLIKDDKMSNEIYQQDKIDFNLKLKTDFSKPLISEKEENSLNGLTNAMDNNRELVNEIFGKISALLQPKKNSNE

[2] = target: T2, Okp1 (K. lactis, full length) (Kluyveromyces lactis, UniProt Q6CJY0 1-383); experiment: as above; conditions: both partners purified
T2 construct: Okp1 (CENP-Q orthologue) of Kluyveromyces lactis; also called Okp1^CENP-Q; outer kinetochore protein 1; source: E. coli BL21 Rosetta 2(DE3)pLysS, co-expressed as COMA, purified
T2 sequence (looked up): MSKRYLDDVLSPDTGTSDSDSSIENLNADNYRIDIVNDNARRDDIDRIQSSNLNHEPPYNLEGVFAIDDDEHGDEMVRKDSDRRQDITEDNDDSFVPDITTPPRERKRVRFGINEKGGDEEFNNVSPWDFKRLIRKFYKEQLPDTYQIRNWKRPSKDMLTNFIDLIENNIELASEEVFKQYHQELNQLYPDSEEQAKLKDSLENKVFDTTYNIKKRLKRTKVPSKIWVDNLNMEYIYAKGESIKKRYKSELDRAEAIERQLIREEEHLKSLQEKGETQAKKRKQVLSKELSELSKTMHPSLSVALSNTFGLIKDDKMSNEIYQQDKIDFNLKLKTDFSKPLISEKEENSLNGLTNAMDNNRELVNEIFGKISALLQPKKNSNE

[3] = target: T3, COMA (K. lactis, full length: Ame1, Ctf19, Mcm21, Okp1) (Kluyveromyces lactis, UniProt Q6CUE5 1-292; Q6CRN7 1-270; Q6CVQ9 1-293; Q6CJY0 1-383); experiment: as above; conditions: both partners purified
T3 construct: Ame1 of Kluyveromyces lactis; Ctf19 of Kluyveromyces lactis; Mcm21 of Kluyveromyces lactis; Okp1 of Kluyveromyces lactis; copies: + + +
T3 sequence (looked up) 1: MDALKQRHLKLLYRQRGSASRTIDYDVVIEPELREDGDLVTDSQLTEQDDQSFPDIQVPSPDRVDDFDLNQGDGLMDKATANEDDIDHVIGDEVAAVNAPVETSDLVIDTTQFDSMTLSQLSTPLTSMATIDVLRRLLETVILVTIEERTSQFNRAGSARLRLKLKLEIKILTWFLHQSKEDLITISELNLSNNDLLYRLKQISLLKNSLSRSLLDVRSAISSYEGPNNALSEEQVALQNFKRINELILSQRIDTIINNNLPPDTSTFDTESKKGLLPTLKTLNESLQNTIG
T3 sequence (looked up) 2: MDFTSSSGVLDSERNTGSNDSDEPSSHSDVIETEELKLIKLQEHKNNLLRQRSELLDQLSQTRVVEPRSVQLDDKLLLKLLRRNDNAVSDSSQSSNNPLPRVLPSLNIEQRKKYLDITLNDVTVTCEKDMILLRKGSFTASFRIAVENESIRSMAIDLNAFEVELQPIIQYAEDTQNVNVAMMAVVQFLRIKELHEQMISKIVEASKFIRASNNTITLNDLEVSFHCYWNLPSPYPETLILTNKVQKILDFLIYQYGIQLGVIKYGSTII
T3 sequence (looked up) 3: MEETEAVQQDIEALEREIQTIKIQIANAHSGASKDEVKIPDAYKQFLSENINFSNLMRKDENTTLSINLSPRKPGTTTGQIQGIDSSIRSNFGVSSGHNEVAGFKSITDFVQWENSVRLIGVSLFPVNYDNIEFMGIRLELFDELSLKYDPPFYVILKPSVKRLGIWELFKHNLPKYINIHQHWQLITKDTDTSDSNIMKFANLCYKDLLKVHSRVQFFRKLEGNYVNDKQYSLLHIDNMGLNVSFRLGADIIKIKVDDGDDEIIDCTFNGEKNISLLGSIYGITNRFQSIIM
T3 sequence (looked up) 4: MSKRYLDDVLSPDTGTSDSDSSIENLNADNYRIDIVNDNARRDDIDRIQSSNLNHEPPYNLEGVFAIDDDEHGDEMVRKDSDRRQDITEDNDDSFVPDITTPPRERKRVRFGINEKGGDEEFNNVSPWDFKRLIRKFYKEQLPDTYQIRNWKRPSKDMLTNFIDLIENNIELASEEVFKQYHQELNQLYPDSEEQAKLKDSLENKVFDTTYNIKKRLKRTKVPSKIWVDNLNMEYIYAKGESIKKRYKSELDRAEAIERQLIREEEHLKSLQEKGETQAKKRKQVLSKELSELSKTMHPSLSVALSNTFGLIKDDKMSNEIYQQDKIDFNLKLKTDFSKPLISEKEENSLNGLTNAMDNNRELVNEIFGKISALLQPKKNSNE

[4] = target: the molecule itself; experiment: native MS; nanoflow electrospray of intact assemblies in 200 mM ammonium acetate pH 6.7-7.3 or 7.4; higher micromolar concentrations (COMA ~3 or ~6 uM; COMA-Nkp1-Nkp2 ~3 uM)
[5] = target: T4, full-length Ctf19-Mcm21 (K. lactis) (Kluyveromyces lactis, UniProt Q6CRN7 1-270; Q6CVQ9 1-293); experiment: MST
T4 chain 1: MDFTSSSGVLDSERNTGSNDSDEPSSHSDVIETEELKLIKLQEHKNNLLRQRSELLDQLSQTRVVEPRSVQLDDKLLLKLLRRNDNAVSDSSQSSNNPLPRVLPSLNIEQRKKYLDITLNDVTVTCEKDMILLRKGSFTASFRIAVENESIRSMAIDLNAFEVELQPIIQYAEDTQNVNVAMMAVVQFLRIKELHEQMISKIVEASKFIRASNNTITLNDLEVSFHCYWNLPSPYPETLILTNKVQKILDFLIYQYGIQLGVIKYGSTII
T4 chain 2: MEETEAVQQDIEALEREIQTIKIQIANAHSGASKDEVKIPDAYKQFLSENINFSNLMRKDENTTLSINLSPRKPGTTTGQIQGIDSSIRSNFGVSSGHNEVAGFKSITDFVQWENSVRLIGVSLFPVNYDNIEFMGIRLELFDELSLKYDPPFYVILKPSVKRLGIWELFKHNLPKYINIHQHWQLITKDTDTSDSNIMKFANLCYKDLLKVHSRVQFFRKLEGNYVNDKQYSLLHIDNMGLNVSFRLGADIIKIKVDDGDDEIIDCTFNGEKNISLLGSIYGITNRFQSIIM

B1: Nkp1 (K. lactis) (natural protein, Kluyveromyces lactis, UniProt Q6CPR4 1-210, looked up)
chain: MDLESEIIQLVRQNIRPKFPSLNDEQQARLDNALKYDVNYDILKKELVEYIDDWKRNEYYDVLTNIGDLQRLDLGNMLNGDGVSFPKLHSDLANLPRFRLIDNENEMDQSLLHKYDSLRTRLIEKCRAIELIRSATNTDVNYQDINSMLSVVELRQWRDEIQMEWKELAQNLELILKTWPDLTEEKRSKLLQLIDSSSLKSILHIKDNIE
notes: Nkp1 of Kluyveromyces lactis; also called non-essential kinetochore protein 1; HisNkp1; source: E. coli BL21 Rosetta 2(DE3)pLysS, purified
Question: Does B1 bind [1]?
Answer: binds

Question: Does B1 bind [2]?
Answer: binds

Question: Does B1 bind [3]?
Answer: binds

B2: COMA-Nkp1-Nkp2 (K. lactis, full length) (complex, Kluyveromyces lactis)
chain 1: MDALKQRHLKLLYRQRGSASRTIDYDVVIEPELREDGDLVTDSQLTEQDDQSFPDIQVPSPDRVDDFDLNQGDGLMDKATANEDDIDHVIGDEVAAVNAPVETSDLVIDTTQFDSMTLSQLSTPLTSMATIDVLRRLLETVILVTIEERTSQFNRAGSARLRLKLKLEIKILTWFLHQSKEDLITISELNLSNNDLLYRLKQISLLKNSLSRSLLDVRSAISSYEGPNNALSEEQVALQNFKRINELILSQRIDTIINNNLPPDTSTFDTESKKGLLPTLKTLNESLQNTIG
chain 2: MDFTSSSGVLDSERNTGSNDSDEPSSHSDVIETEELKLIKLQEHKNNLLRQRSELLDQLSQTRVVEPRSVQLDDKLLLKLLRRNDNAVSDSSQSSNNPLPRVLPSLNIEQRKKYLDITLNDVTVTCEKDMILLRKGSFTASFRIAVENESIRSMAIDLNAFEVELQPIIQYAEDTQNVNVAMMAVVQFLRIKELHEQMISKIVEASKFIRASNNTITLNDLEVSFHCYWNLPSPYPETLILTNKVQKILDFLIYQYGIQLGVIKYGSTII
chain 3: MEETEAVQQDIEALEREIQTIKIQIANAHSGASKDEVKIPDAYKQFLSENINFSNLMRKDENTTLSINLSPRKPGTTTGQIQGIDSSIRSNFGVSSGHNEVAGFKSITDFVQWENSVRLIGVSLFPVNYDNIEFMGIRLELFDELSLKYDPPFYVILKPSVKRLGIWELFKHNLPKYINIHQHWQLITKDTDTSDSNIMKFANLCYKDLLKVHSRVQFFRKLEGNYVNDKQYSLLHIDNMGLNVSFRLGADIIKIKVDDGDDEIIDCTFNGEKNISLLGSIYGITNRFQSIIM
chain 4: MSKRYLDDVLSPDTGTSDSDSSIENLNADNYRIDIVNDNARRDDIDRIQSSNLNHEPPYNLEGVFAIDDDEHGDEMVRKDSDRRQDITEDNDDSFVPDITTPPRERKRVRFGINEKGGDEEFNNVSPWDFKRLIRKFYKEQLPDTYQIRNWKRPSKDMLTNFIDLIENNIELASEEVFKQYHQELNQLYPDSEEQAKLKDSLENKVFDTTYNIKKRLKRTKVPSKIWVDNLNMEYIYAKGESIKKRYKSELDRAEAIERQLIREEEHLKSLQEKGETQAKKRKQVLSKELSELSKTMHPSLSVALSNTFGLIKDDKMSNEIYQQDKIDFNLKLKTDFSKPLISEKEENSLNGLTNAMDNNRELVNEIFGKISALLQPKKNSNE
chain 5: MDLESEIIQLVRQNIRPKFPSLNDEQQARLDNALKYDVNYDILKKELVEYIDDWKRNEYYDVLTNIGDLQRLDLGNMLNGDGVSFPKLHSDLANLPRFRLIDNENEMDQSLLHKYDSLRTRLIEKCRAIELIRSATNTDVNYQDINSMLSVVELRQWRDEIQMEWKELAQNLELILKTWPDLTEEKRSKLLQLIDSSSLKSILHIKDNIE
chain 6: MLHEVLYKHLDGILVSRLYTEDQFVDLFSRTIPESNTVIASQLYKSYEENDQRIIEKIDKLIDNKLSLIRVELEREQIEDSISLEEVNKLLHSIDDMLQQHLNQLNIELDNKNTKLLKYAMELSDIEAIDTSMYDNVAKLITDMETNQPSS
notes: Ame1 of Kluyveromyces lactis; Ctf19 of Kluyveromyces lactis; Mcm21 of Kluyveromyces lactis; N-terminal SNA residual; Okp1 of Kluyveromyces lactis; Nkp1 of Kluyveromyces lactis; Nkp2 of Kluyveromyces lactis; source: E. coli BL21 Rosetta 2(DE3)pLysS, reconstituted, purified (SEC); not shown: polyhistidine, N-terminal, cleaved; copies: + + + + +
Question: For B2, which “stoichiometry N” value [4] is on record?
Answer: 2

B3: D328A-F329A (peptide)
chain: SNEIYQQDKIAANLKLKTDF
modifications: synthetic peptide; terminal chemistry not stated
Question: Which Kd [5] does the source give for B3 here?
Answer: 64 µM

B4: K332P (peptide)
chain: SNEIYQQDKIDFNLPLKTDF
modifications: synthetic peptide; terminal chemistry not stated
Question: Which Kd [5] does the source give for B4 here?
Answer: 9.75 µM

B5: F329A (peptide)
chain: SNEIYQQDKIDANLKLKTDF
modifications: synthetic peptide; terminal chemistry not stated
Question: For B5, which Kd [5] is on record?
Answer: 25.3 µM
